{"source": "paper PMC10148881", "about": "“Recognition of an Ala-rich C-degron by the E3 ligase Pirh2” (Nature Communications, 2023)", "target": "Ala6/C-degron peptide (sequence: …)", "test": "ITC", "note": "pKd: −log10 of the molar value.", "data": [{"substance": "WT Pirh2 I110D", "values": [{"measurement": "pKd", "result": 4.40}]}]}
